In paper doi:10.1101/2021.07.08.451670 one finds stoichiometry N data, which are given here for one substance.

The term stoichiometry N denotes the number of molecules, sites or subunits per partner or assembly.

For this assay, the target named is P-GltPh (S279E/D405N) (UniProt O59010). The experiment in a line: cryo-EM structure.

“P-GltPh (S279E/D405N) (from UniProt O59010 1-417) (natural protein)”: the stoichiometry N is 3.
